Test results from patent US20140220040A1.

Target: Human LRP6-Fc (R&D Systems), recombinant human LRP6 containing the complete extracellular domain (human) (UniProt O75581)
Experiment: SPR (BIAcore), mAb captured on anti-mouse chip, Fc-antigen injected, 1:1 model

Chain of Human LRP6-Fc (R&D Systems), recombinant human LRP6 containing the complete extracellular domain (human) (O75581 20-1370 V1062I): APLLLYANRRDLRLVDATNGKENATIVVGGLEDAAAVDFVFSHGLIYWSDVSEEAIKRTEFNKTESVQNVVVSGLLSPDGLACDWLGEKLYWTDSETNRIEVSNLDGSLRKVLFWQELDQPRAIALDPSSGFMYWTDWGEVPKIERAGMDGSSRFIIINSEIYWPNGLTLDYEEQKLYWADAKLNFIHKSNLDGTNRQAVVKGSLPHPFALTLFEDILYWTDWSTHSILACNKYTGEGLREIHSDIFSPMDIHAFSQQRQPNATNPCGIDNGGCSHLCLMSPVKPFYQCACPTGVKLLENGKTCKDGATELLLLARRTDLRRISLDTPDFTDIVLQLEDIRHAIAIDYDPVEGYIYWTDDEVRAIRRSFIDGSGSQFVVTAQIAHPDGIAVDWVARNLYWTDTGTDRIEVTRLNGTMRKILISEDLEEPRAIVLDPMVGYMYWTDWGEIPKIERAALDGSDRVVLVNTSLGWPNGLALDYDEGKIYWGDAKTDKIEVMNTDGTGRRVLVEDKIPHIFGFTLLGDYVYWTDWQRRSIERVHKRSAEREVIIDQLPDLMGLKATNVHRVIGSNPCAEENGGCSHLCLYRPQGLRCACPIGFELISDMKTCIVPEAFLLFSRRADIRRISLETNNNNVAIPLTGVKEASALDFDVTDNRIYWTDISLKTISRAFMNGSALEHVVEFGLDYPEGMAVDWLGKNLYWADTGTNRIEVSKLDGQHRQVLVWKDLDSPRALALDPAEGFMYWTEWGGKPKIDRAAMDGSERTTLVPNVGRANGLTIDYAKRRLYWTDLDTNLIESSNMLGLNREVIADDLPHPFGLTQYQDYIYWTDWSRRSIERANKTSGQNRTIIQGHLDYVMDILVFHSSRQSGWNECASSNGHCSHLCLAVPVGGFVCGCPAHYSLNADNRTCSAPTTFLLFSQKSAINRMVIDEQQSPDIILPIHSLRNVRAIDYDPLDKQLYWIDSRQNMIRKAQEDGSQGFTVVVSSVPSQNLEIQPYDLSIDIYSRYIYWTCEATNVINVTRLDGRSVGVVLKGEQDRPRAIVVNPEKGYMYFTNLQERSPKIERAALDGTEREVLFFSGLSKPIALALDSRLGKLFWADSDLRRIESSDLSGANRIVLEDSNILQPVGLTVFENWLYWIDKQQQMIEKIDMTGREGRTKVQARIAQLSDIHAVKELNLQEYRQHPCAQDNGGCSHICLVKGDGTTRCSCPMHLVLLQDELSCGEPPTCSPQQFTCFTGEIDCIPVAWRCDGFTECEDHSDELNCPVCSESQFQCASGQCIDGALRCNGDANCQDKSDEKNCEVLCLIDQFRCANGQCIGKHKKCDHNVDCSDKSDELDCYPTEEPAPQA

Row | Kd [nM] | koff [s⁻¹] | kon [M⁻¹ s⁻¹] | Binder
1 | 2.05 | 5.7e-05 | 28000 | anti-LRP6 monoclonal antibody 993.9 (antibody, part only; not given: light chain, not determined, V domains shown, part only) VH: DVQVQESGPGLVKPSQSLSLTCSVTGYSITSGYYWNWIRQFPGNKLEWMGYISYDGRNNYNPSLKNRISITRDTSKNQFFLKLNSVTTEDTATYYCARENSNYPYYYDYWGQGTTLTVSSAKT
2 | 1.09 | 4.51e-05 | 41400 | anti-LRP6 monoclonal antibody 995.5 (antibody, part only; not given: light chain, not determined, V domains shown, part only) VH: RMKVLSLLYLLTAIPGILSDVQVQESGPGLVKPSQSLSLTCSVTGYSITSGYYWNWIRQFPGNKLEWMGYISYDGRNNYNPSLKNRISITRDTSKNQFFLKLNSVTTEDTATYYCARENSNYPYYYDYWGQGTTLTVSSAKT
